According to US20160114000A1 (Merck Sharp & Dohme, published 2016):
*1 amine or outer side, *2 acyl side, *3 side chain or, on linkers, in order; H or OH if unused. Where a SMILES comes first, the peptide text is derived from it. Where no end group is shown, it is not given here. Side-chain parts run from the residue outwards. [ ]: non-standard residue; d: D form. The star is where a group is joined. γGlu = O=C(O)[C@H](CCC(=O)[*:2])N[*:1]; Palmitoyl = CCCCCCCCCCCCCCCC(=O)*; Nle = CCCC[C@H](N)C(=O)O; Aib = CC(C)(N)C(=O)O

B1: Co-agonist Peptide 7 (peptide)
peptide: Ac-HAQGTFTSDK([γGlu-γGlu-Palmitoyl])SKYLDERAAQDFVQWLLDT-NH2
SMILES: CCCCCCCCCCCCCCCC(=O)N[C@@H](CCC(=O)N[C@@H](CCC(=O)NCCCC[C@H](NC(=O)[C@H](CC(=O)O)NC(=O)[C@H](CO)NC(=O)[C@@H](NC(=O)[C@H](Cc1ccccc1)NC(=O)[C@@H](NC(=O)CNC(=O)[C@H](CCC(N)=O)NC(=O)[C@H](C)NC(=O)[C@H](Cc1c[nH]cn1)NC(C)=O)[C@@H](C)O)[C@@H](C)O)C(=O)N[C@@H](CO)C(=O)N[C@@H](CCCCN)C(=O)N[C@@H](Cc1ccc(O)cc1)C(=O)N[C@@H](CC(C)C)C(=O)N[C@@H](CC(=O)O)C(=O)N[C@@H](CCC(=O)O)C(=O)N[C@@H](CCCNC(=N)N)C(=O)N[C@@H](C)C(=O)N[C@@H](C)C(=O)N[C@@H](CCC(N)=O)C(=O)N[C@@H](CC(=O)O)C(=O)N[C@@H](Cc1ccccc1)C(=O)N[C@H](C(=O)N[C@@H](CCC(N)=O)C(=O)N[C@@H](Cc1c[nH]c2ccccc12)C(=O)N[C@@H](CC(C)C)C(=O)N[C@@H](CC(C)C)C(=O)N[C@@H](CC(=O)O)C(=O)N[C@H](C(N)=O)[C@@H](C)O)C(C)C)C(=O)O)C(=O)O
B2: Co-agonist Peptide 14 (peptide)
peptide: HXQGTXTSDKSKYLDERAAQDFVQWLLDT
modifications: D-Ser at 2; threo-β-phenylserine (tβP) at 6; Lys 10 conjugated to γEγE-C16 (palmitoyl); C-terminal amide
B3: Co-agonist Peptide 4 (peptide)
peptide: H[Aib]VGTFTSDK([γGlu-γGlu-Palmitoyl])SKYLD[Aib]RAAQDFVQWL[Nle]DT-NH2
modifications: N-terminus assumed
SMILES: CCCCCCCCCCCCCCCC(=O)N[C@@H](CCC(=O)N[C@@H](CCC(=O)NCCCC[C@H](NC(=O)[C@H](CC(=O)O)NC(=O)[C@H](CO)NC(=O)[C@@H](NC(=O)[C@H](Cc1ccccc1)NC(=O)[C@@H](NC(=O)CNC(=O)[C@@H](NC(=O)C(C)(C)NC(=O)[C@@H](N)Cc1c[nH]cn1)C(C)C)[C@@H](C)O)[C@@H](C)O)C(=O)N[C@@H](CO)C(=O)N[C@@H](CCCCN)C(=O)N[C@@H](Cc1ccc(O)cc1)C(=O)N[C@@H](CC(C)C)C(=O)N[C@@H](CC(=O)O)C(=O)NC(C)(C)C(=O)N[C@@H](CCCNC(=N)N)C(=O)N[C@@H](C)C(=O)N[C@@H](C)C(=O)N[C@@H](CCC(N)=O)C(=O)N[C@@H](CC(=O)O)C(=O)N[C@@H](Cc1ccccc1)C(=O)N[C@H](C(=O)N[C@@H](CCC(N)=O)C(=O)N[C@@H](Cc1c[nH]c2ccccc12)C(=O)N[C@@H](CC(C)C)C(=O)N[C@@H](CCCC)C(=O)N[C@@H](CC(=O)O)C(=O)N[C@H](C(N)=O)[C@@H](C)O)C(C)C)C(=O)O)C(=O)O

Legend:
human GCGR = target: T1, human GCGR (Homo sapiens, UniProt P47871); assay: cAMP protocol, cells expressing human GCGR; type: cell-based; conditions: ratio of EC50 at human GCGR to EC50 at human GLP1R
T1 construct: expressed in transfected cells; grown under Geneticin and Hygromycin selection
T1 sequence (P47871 26-477): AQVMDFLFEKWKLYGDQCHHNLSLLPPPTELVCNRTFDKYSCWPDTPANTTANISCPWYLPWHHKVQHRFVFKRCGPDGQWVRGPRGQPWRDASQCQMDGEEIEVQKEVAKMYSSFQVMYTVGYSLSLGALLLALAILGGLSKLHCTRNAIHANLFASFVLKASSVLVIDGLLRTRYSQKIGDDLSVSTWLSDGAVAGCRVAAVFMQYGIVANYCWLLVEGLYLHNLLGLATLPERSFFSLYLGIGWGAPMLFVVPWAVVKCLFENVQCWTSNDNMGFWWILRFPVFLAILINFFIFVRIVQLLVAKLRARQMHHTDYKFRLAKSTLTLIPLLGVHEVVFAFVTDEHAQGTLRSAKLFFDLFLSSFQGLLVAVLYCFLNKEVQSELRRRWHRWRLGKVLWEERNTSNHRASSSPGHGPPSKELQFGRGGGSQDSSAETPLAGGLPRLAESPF
Description: The cAMP protocol was as follows.
Peptides were dissolved in 100% DMSO and serially diluted to generate 11 point titrations. The peptide solutions were then transferred into 384-well assay plates (150 nL/well). Assay ready frozen cells expressing human GLP-1R or human GCGR were suspended in growth media consisting of DMEM/F12 medium (GIBCO), 10% FBS (GIBCO), lx P/S (GIBCO), 800 μg/mL Geneticin (GIBCO), and 300 μg/mL Hygromycin (Invitrogen). Cells were then diluted in assay buffer consisting of PBS (GIBCO), 7.5% BSA (Perkin Elmer), 100 μM RO 20-1724 (Sigma), and 20% human serum (MP Biomedical). The cell suspensions (15 μL) were then added to the assay plates containing the peptide solutions (30,000 cells/well for human GCGR; 20,000 cells/well for GLP1R). The cells were incubated for 1 hour at room temperature in the dark. Production of cAMP was determined using HitHunter™ cAMPXS kits (DiscoverX). ED buffer (20 μL) was then added to each well and the plates were incubated for 1 hour at room temperature in the dark. Subsequently, EA buffer (20 μL) was added to each well, and the plates were incubated for 1-18 hours at room temperature in the dark. Luminescence was measured using an EnVision Multilabel plate reader (Perkin Elmer). EC50 values were calculated using ADA data analyzer software.

human glucagon receptor = human glucagon receptor (human, UniProt P47871 26-477); assay: cell-based or functional assay
Sequence of human glucagon receptor (P47871 26-477): as above

Row | Molecule | hGCGR/hGLP1R (hTone) (human GCGR) | hGCGR/hGLP1R (hTone): ratio of cAMP EC50 at human GCGR to cAMP EC50 at human GLP1R (human glucagon receptor) [ratio]
1 | CCCCCCCCCCCCCCCC(=O)N[C@@H](CCC(=O)N[C@@H](CCC(=O)NCCCC[C@H](NC(=O)[C@H](CC(=O)O)NC(=O)[C@H](CO)NC(=O)[C@@H](NC(=O)[C@H](Cc1ccccc1)NC(=O)[C@@H](NC(=O)CNC(=O)[C@H](CCC(N)=O)NC(=O)[C@@H](CO)NC(=O)[C@@H](N)Cc1c[nH]cn1)[C@@H](C)O)[C@@H](C)O)C(=O)N[C@@H](CO)C(=O)N[C@@H](CCCCN)C(=O)N[C@@H](Cc1ccc(O)cc1)C(=O)N[C@@H](CC(C)C)C(=O)N[C@@H](CCC(=O)O)C(=O)N[C@@H](C)C(=O)N[C@@H](CCCNC(=N)N)C(=O)N[C@@H](C)C(=O)N[C@@H](C)C(=O)N[C@@H](CCC(N)=O)C(=O)N[C@@H](CC(=O)O)C(=O)N[C@@H](Cc1ccccc1)C(=O)N[C@H](C(=O)N[C@@H](CCC(N)=O)C(=O)N[C@@H](Cc1c[nH]c2ccccc12)C(=O)N[C@@H](CC(C)C)C(=O)N[C@@H](CC(C)C)C(=O)N[C@@H](CC(=O)O)C(=O)N[C@H](C(N)=O)[C@@H](C)O)C(C)C)C(=O)O)C(=O)O [SEQ ID NO: 13] | 0.90 | –
2 | CCCCCCCCCCCCCCCC(=O)N[C@@H](CCC(=O)N[C@@H](CCC(=O)NCCCC[C@H](NC(=O)[C@H](CC(=O)O)NC(=O)[C@H](CO)NC(=O)[C@@H](NC(=O)[C@H](Cc1ccccc1)NC(=O)[C@@H](NC(=O)CNC(=O)[C@H](CCC(N)=O)NC(=O)[C@@H](CO)NC(=O)[C@@H](N)Cc1c[nH]cn1)[C@@H](C)O)[C@@H](C)O)C(=O)N[C@@H](CO)C(=O)N[C@@H](CC(C)C)C(=O)N[C@@H](Cc1ccc(O)cc1)C(=O)N[C@@H](CC(C)C)C(=O)N[C@@H](CC(=O)O)C(=O)N[C@@H](CCC(=O)O)C(=O)N[C@@H](CCCNC(=N)N)C(=O)N[C@@H](C)C(=O)N[C@@H](C)C(=O)N[C@@H](CCC(N)=O)C(=O)N[C@@H](CC(=O)O)C(=O)N[C@@H](Cc1ccccc1)C(=O)N[C@H](C(=O)N[C@@H](CCC(N)=O)C(=O)N[C@@H](Cc1c[nH]c2ccccc12)C(=O)N[C@@H](CC(C)C)C(=O)N[C@@H](CC(C)C)C(=O)N[C@@H](CC(=O)O)C(=O)N[C@H](C(N)=O)[C@@H](C)O)C(C)C)C(=O)O)C(=O)O [SEQ ID NO: 16] (H-H[dS]QGTFTSDK([γGlu-γGlu-Palmitoyl])SLYLDERAAQDFVQWLLDT-NH2) | 0.91 | –
3 | CCCCCCCCCCCCCCCC(=O)N[C@@H](CCC(=O)N[C@@H](CCC(=O)NCCCC[C@H](NC(=O)[C@H](CC(=O)O)NC(=O)[C@H](CO)NC(=O)[C@@H](NC(=O)[C@H](Cc1ccccc1)NC(=O)[C@@H](NC(=O)CNC(=O)[C@H](CCC(N)=O)NC(=O)C1(NC(=O)[C@@H](N)Cc2c[nH]cn2)CCC1)[C@@H](C)O)[C@@H](C)O)C(=O)N[C@@H](CO)C(=O)N[C@@H](CCCCN)C(=O)N[C@@H](Cc1ccc(O)cc1)C(=O)N[C@@H](CC(C)C)C(=O)N[C@@H](CC(=O)O)C(=O)N[C@@H](CCC(=O)O)C(=O)N[C@@H](CCCNC(=N)N)C(=O)N[C@@H](C)C(=O)N[C@@H](C)C(=O)N[C@@H](CCC(N)=O)C(=O)N[C@@H](CC(=O)O)C(=O)N[C@@H](Cc1ccccc1)C(=O)N[C@H](C(=O)N[C@@H](CCC(N)=O)C(=O)N[C@@H](Cc1c[nH]c2ccccc12)C(=O)N[C@@H](CC(C)C)C(=O)N[C@@H](CC(C)C)C(=O)N[C@@H](CC(=O)O)C(=O)N[C@H](C(N)=O)[C@@H](C)O)C(C)C)C(=O)O)C(=O)O [SEQ ID NO: 18] | 1.25 | –
4 | B1 | – | 1
5 | H[dS]QGTFTSDK([γGlu-γGlu-Palmitoyl])SKYLDVRRAQDFVQWLLDT-NH2 (not fully specified; printed as HsQGTFTSDK(γEγEC16)SKYLDVRRAQDFVQWLLDT-NH2) [Co-agonist Peptide 2] | – | 0.3
6 | B2 | – | 1.02
7 | B3 | – | 8.98
